System: MS2 coat protein
Test: apparent KD of MS2 coat protein; higher = weaker reporter binding
Details: Eterna round: R107
Summary of the method: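 Designed RNA switches were transcribed on-chip from Illumina sequencing clusters. They were then titrated with SNAP-549-labelled MS2 coat protein (twofold steps, 0.7 or 1.5 nM to 3 µM; 0.8–1.5 h to 10–20 min per step) in 100 mM Tris-HCl pH 7.5, 80 mM KCl, 4 mM MgCl2, without or with constant ligand. Apparent KD is the per-design median of normalised cluster binding-curve fits.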

[1] = input ligand: theophylline 20 uM
[2] = input ligand: theophylline 2 mM
[3] = input ligand: tryptophan 2.4 mM

Row | Sequence | apparent KD of MS2 coat protein (input ligand: arginine 13.2 mM) | apparent KD of MS2 coat protein (input ligand: none) | apparent KD of MS2 coat protein [1] | apparent KD of MS2 coat protein [2] | apparent KD of MS2 coat protein [3]
1 | UACAUGAGGAUCACCCAUGUCUGAACUGAAGGAGCGCUAAACAAGGCAGGUAGGUCGCGGAAUUUUGUGUGCAUAUGCAUAUGGG [9.K] | 23.6 nM | 30.6 nM | 46.7 nM | 36.5 nM | 31.1 nM
2 | UACAUGAGGAUCACCCAUGUGUAGAGGGAUACCAGUGACAGUAAGCGCCCUUGGCAGCCCGUGAACAAUGGGUGAGCAAAAUAGU [#17 Exclusion-TheophyllineA] | 41.4 nM | 19.4 nM | 233 nM | 25.6 nM | 44.7 nM
3 | UACUUGCGGUCGGCCGCCACUACGAGGCAGACCUUCACAUGAGGAUCACCCAUGUAGUCGGCUAGUAGGACCGGGAUGGCAUAAA [Solasoce] | 28.6 nM | 29.2 nM | 41.9 nM | 41.8 nM | 16.3 nM
4 | UACUUGCUGACGGCCGCCACUAGAACAUGAGGAUCACCCAUGUACCUGGUCCUUCAUGGGUGGACUAGGACCGGGUCAGCAAGAU [(Trp1)-(Ms2)-(T)'-(M)'-(Trp2)_Design4] | 186 nM | – | 418 nM | 517 nM | –
5 | UAGAUAGAGGGAAGGAGCGCAGUAACAUAACAUGAGGAUCACCCAUGUAAGAAAUUAAUAAUGCAGGUAGGUCGCCCAAGAUGAU [#10 Same State - Arginine B] | 12.4 nM | 13.6 nM | 17 nM | 15.1 nM | 13.9 nM
6 | UAGUACAUGAGGAUCACCCAUGUCGGAGGUCGAGGACCGGUACGGCCGCCACUCGGUCAUGCCCUACGAUACGACAGGAAUCUGU [theeternabot_sameState_MS2_Trp_A_28] | 21.8 nM | – | 36.5 nM | 28.9 nM | –
7 | UAUACUAUGAAAGUAGUAUAUACGUGUUGACGAGGACCGGUACGGCCGCCACUCGACAUGAGGAUCACCCAUGUAUAGAAUAAGU [TrypA_F1] | 18.6 nM | 23.7 nM | 24.4 nM | 30 nM | 15.3 nM
8 | UAUAUUGUGAUGGAUACCAGCAGAGAAAACGUUUAUCCUAACAUGAGGAUCACCCAUGUAUGCCCUUGGCAGCUGUUGUGAUAUA [8.N] | 47.6 nM | – | 73.9 nM | – | 61.1 nM
9 | UAUCCACAUGAGGAUCACCCAUGUAAGGAAGGAGCGGUGAAUGCACCAGGUAGGUCGCCUUGCUGAGGACUGUCGGUGGAUUCGU [Exclusion - Arginine A (Freestyle 22)] | 26.8 nM | 32.8 nM | 43.2 nM | 39.5 nM | 32 nM
10 | UAUCGACACUGAAGGAGCGAGAUGACAAACAUGAGGAUCACCCAUGUUAUGGGUUGUUAAUCUCAGGUAGGUCGCAGUGGUCGCA [Same State Arginine B GF 18] | 67.8 nM | 93.3 nM | 130 nM | 108 nM | 85.7 nM
11 | UAUCGUCAGACGGCCGCCACUAGAACAUGAGGAUCACCCAUGUAGGUCCUAGAUUCCUCAAUAACUAGGACCGGGUCUGACGAAU [(Trp1)-(Ms2)-(T)'-(M)'-(Trp2)_Design14] | 81.8 nM | – | 137 nM | 224 nM | –
12 | UAUCGUCAGACGGCCGCCACUAGAACAUGAGGAUCACCCAUGUAGUGGCCGGAUACCUCAAUAACUAGGACCGGGUCUGACGAAU [(Trp1)-(Ms2)-(T)'-(M)'-(Trp2)_Design17] | 36.6 nM | 52.2 nM | 96.5 nM | 54 nM | 32.7 nM
13 | UAUGCACAUGAGGAUCACCCAUGUAUGGAAGGAGCGGUGAAUAAACCAGGUAGGUCGCCAUGGUGAGGGUCAUCUAUGUAAUCGU [Exclusion - Arginine A (Freestyle 5)] | 51 nM | 47.3 nM | 78.4 nM | 80.3 nM | 59.3 nM
14 | UAUUCUGACACAGAUACCAGUCAAUUCCGUGGCAAGUGCUACAUGAGGAUCACCCAUGUCGACCCUUGGCAGCUGAAGAGAUACA [theeternabot_exclusion_MS2_Theo_B_50] | 10.9 nM | – | 14.7 nM | – | 11.2 nM
15 | UCAAAUGCGGCGGCCGCCACUCGCGGAUAACGAUAGCUUAACAUGAGGAUCACCCAUGUGUCAUGGAGGACCGGGCCCAUAACAU [ttmullin] | 23.4 nM | 27.2 nM | 35.1 nM | 37.1 nM | 23.9 nM
16 | UCACAUGAGGAUCACCCAUGUGUCAGAGAAGGAGCGGCCGCAAGGCCAGGUAGGUCGCUCGGGUAUUGUGAGGUUCACCCGUGUG [#1 Exclusion - Arginine A Attempt #12 (Inspired by cyborg)] | 26.7 nM | 35.8 nM | 57.3 nM | 44.4 nM | 34.6 nM

— the supplement of paper PMC9170038
